# Test results reported in patent US20120135912A1 (PERSEID THERAPEUTICS, published 2012).
# Target: T1, human VLA4-Fc (alpha4-Fc/beta1-Fc heterodimer) (human)
# T1 construct: Soluble heterodimer from CHO cells, Protein A purified; also called VLA-Fc
# Test: SPR (BIACORE), crude CHO-S supernatant on VLA4-Fc
# T1 sequence (chain, as listed by the source limits assumed, form in doubt, chain 1 of 2): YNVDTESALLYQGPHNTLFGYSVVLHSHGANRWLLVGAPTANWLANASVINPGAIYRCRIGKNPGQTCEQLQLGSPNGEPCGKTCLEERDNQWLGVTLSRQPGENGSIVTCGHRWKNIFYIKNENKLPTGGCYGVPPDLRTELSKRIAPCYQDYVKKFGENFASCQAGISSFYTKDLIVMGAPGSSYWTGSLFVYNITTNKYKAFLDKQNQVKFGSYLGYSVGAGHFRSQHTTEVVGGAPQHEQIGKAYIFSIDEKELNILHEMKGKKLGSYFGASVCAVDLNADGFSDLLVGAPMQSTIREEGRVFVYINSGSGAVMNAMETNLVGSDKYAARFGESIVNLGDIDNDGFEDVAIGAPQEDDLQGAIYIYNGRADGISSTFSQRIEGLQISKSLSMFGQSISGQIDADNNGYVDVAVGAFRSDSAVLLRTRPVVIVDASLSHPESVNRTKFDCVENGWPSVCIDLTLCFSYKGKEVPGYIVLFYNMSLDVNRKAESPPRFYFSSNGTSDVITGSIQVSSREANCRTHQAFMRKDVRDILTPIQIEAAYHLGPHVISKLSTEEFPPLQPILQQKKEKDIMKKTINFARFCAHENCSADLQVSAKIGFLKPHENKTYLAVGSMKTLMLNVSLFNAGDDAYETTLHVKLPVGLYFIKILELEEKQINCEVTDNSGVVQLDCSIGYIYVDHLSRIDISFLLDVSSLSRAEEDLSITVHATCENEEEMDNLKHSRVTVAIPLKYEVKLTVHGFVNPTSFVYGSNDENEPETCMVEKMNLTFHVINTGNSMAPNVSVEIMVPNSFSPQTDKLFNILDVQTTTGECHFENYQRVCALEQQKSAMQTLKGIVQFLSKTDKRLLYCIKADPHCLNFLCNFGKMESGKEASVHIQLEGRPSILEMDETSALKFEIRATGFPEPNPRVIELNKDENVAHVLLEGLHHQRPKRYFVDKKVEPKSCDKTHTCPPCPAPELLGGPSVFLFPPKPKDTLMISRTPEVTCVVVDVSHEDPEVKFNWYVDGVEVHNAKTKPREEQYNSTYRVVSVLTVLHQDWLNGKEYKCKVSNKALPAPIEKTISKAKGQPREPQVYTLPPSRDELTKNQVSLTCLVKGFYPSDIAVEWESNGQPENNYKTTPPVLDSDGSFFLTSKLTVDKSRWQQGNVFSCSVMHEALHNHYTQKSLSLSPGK
# T1 sequence (chain, as listed by the source limits assumed, form in doubt, chain 2 of 2): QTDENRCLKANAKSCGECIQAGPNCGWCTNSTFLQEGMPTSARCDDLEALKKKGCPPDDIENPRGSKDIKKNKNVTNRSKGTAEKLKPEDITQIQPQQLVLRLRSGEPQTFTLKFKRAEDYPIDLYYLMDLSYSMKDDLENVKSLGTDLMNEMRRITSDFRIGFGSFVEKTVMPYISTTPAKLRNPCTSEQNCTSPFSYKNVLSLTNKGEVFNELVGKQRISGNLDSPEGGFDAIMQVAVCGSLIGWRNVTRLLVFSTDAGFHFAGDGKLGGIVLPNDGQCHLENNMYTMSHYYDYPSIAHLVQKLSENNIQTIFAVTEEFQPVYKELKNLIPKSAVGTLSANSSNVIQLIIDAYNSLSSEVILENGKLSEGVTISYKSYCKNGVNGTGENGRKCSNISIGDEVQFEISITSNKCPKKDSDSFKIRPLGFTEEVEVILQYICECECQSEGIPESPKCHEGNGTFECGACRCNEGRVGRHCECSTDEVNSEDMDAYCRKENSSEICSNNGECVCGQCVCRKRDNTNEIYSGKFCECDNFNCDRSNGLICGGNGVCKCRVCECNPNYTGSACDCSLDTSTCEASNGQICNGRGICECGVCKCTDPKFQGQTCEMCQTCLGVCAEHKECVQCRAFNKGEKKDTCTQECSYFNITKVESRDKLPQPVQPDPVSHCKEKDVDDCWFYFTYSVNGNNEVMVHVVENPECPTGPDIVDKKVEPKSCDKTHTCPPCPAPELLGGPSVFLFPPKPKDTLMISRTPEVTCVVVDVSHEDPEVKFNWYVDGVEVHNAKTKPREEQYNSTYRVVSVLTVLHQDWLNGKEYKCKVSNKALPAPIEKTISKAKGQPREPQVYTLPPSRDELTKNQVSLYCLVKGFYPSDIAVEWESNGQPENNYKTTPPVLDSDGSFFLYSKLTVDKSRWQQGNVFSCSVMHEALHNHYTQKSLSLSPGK
row,Binder,fold weaker binding relative to 146R0 (KD(variant)/KD(146R0))
1,"146R0 (Clone 146 with three spacer-FLAG tags, CHO-S supernatant) (ligand, assayed as concentrated, filtered crude supernatant) FKIETTPESRYLAQIGDSVSLTCSTTGCESPLFFWRPLLDSPLNGKVTNEGTTSTLTMNPVSFGNEHSYLCTARCESRSLEKGIQVEIYSFPKDPEIHLSGPLEAGKPITVKCSVADVYPFDRLEIDLLKGDHLMKSQEFLEDADRKSLETKSLEVTFTPVIEDIGKVLVCRAKLHIDEMDSVPTVRQAVKELQVYISPGGGSDYKDDDDKGGGSDYKDDDDKGGGSDYKDDDDK",1 fold
2,"146R7 (ligand, Crude CHO-S supernatant, 3x spacer-FLAG tagged) FKIETTPESRYLAQIGDSVSLTCSTTGCESPLFFWRPLLDSPLNGKVTNEGTTSTLTMNPVSFGNEHSYLCTARCESRKLEKGIQVEIYSFPKDPEIHLSGPLEAGKPITVKCSVADVYPFDRLEIDLLKGDHLMKSQEFLEDADRKSLETKSLEVTFTPVIEDIGKVLVCRAKLHIDEMDSVPTVRQAVKELQVYISPGGGSDYKDDDDKGGGSDYKDDDDKGGGSDYKDDDDKGS",1 fold
3,"146R13 (ligand, Crude CHO-S supernatant, 3x spacer-FLAG tagged) FKIETTPESRYLAQIGDSVSLTCSTTGCESPFFFWRPLLDSPLNGKVTNEGTTSTLTMNPVSFGNEHSYLCTARCESRKLEKGIQVEIYSFPKDPEIHLSGPLEAGKPITVKCSVADVYPFDRLEIDLLKGDHLMKSQEFLEDADRKSLETKSLEVTFTPVIEDIGKVLVCRAKLHIDEMDSVPTVRQAVKELQVYISPGGGSDYKDDDDKGGGSDYKDDDDKGGGSDYKDDDDKGS",2.3 fold
4,"146R5 (ligand, Crude CHO-S supernatant, 3x spacer-FLAG tagged) FKIETTPESRYLAQIGDSVSLTCSTTGCESPLFFWRPLIDSPLNGKVTNEGTTSTLTMNPVSFGNEHSYLCTARCESRSLEKGIQVEIYSFPKDPEIHLSGPLEAGKPITVKCSVADVYPFDRLEIDLLKGDHLMKSQEFLEDADRKSLETKSLEVTFTPVIEDIGKVLVCRAKLHIDEMDSVPTVRQAVKELQVYISPGGGSDYKDDDDKGGGSDYKDDDDKGGGSDYKDDDDKGS",1.2 fold
5,"146R2 (ligand, Crude CHO-S supernatant, 3x spacer-FLAG tagged) FKIETTPESRYLAQIGDSVSLTCSTTGCESPLFSWRPLLDSPLNGKVTNEGTTSTLTMNPVSFGNEHSYLCTARCESRSLEKGIQVEIYSFPKDPEIHLSGPLEAGKPITVKCSVADVYPFDRLEIDLLKGDHLMKSQEFLEDADRKSLETKSLEVTFTPVIEDIGKVLVCRAKLHIDEMDSVPTVRQAVKELQVYISPGGGSDYKDDDDKGGGSDYKDDDDKGGGSDYKDDDDKGS",2.7 fold
6,"146R3 (ligand, Crude CHO-S supernatant, 3x spacer-FLAG tagged) FKIETTPESRYLAQIGDSVSLTCSTTGCESPLFFWRTLLDSPLNGKVTNEGTTSTLTMNPVSFGNEHSYLCTARCESRSLEKGIQVEIYSFPKDPEIHLSGPLEAGKPITVKCSVADVYPFDRLEIDLLKGDHLMKSQEFLEDADRKSLETKSLEVTFTPVIEDIGKVLVCRAKLHIDEMDSVPTVRQAVKELQVYISPGGGSDYKDDDDKGGGSDYKDDDDKGGGSDYKDDDDKGS",1.3 fold
7,"146R4 (ligand, Crude CHO-S supernatant, 3x spacer-FLAG tagged) FKIETTPESRYLAQIGDSVSLTCSTTGCESPLFFWRPQLDSPLNGKVTNEGTTSTLTMNPVSFGNEHSYLCTARCESRSLEKGIQVEIYSFPKDPEIHLSGPLEAGKPITVKCSVADVYPFDRLEIDLLKGDHLMKSQEFLEDADRKSLETKSLEVTFTPVIEDIGKVLVCRAKLHIDEMDSVPTVRQAVKELQVYISPGGGSDYKDDDDKGGGSDYKDDDDKGGGSDYKDDDDKGS",2.6 fold
8,"146R1 (ligand, Crude CHO-S supernatant, 3x spacer-FLAG tagged) FKIETTPESRYLAQIGDSVSLTCSTTGCESPFFFWRPLLDSPLNGKVTNEGTTSTLTMNPVSFGNEHSYLCTARCESRSLEKGIQVEIYSFPKDPEIHLSGPLEAGKPITVKCSVADVYPFDRLEIDLLKGDHLMKSQEFLEDADRKSLETKSLEVTFTPVIEDIGKVLVCRAKLHIDEMDSVPTVRQAVKELQVYISPGGGSDYKDDDDKGGGSDYKDDDDKGGGSDYKDDDDKGS",1.1 fold

# Now from value to binder:
row,fold weaker binding relative to 146R0 (KD(variant)/KD(146R0)),Binder
1,1.1 fold,"146R16 (ligand, Crude CHO-S supernatant, 3x spacer-FLAG tagged; The cell prints N: 131) FKIETTPESRYLAQIGDSVSLTCSTTGCESPFFFWRPLIDSPLNGKVTNEGTTSTLTMNPVSFGNEHSYLCTARCESRSLEKGIQVEIYSFPKDPEIHLSGPLEAGKPITVKCSVADVYPFDRLEIDLLKGDHLMKSQEFLEDADRKSLETKSLEVTFTPVIEDIGKVLVCRAKLHIDEMDSVPTVRQAVKELQVYISPGGGSDYKDDDDKGGGSDYKDDDDKGGGSDYKDDDDKGS"
2,40 fold,"146R19 (ligand, Crude CHO-S supernatant, 3x spacer-FLAG tagged) FKIETTPESRYLAQIGDSVSLTCSTTGCESPFFFWRPQIDSPLNGKVTNEGTTSTLTMNPVSFGNEHSYLCTARCESRKLEKGIQVEIYSFPKDPEIHLSGPLEAGKPITVKCSVADVYPFDRLEIDLLKGDHLMKSQEFLEDADRKSLETKSLEVTFTPVIEDIGKVLVCRAKLHIDEMDSVPTVRQAVKELQVYISPGGGSDYKDDDDKGGGSDYKDDDDKGGGSDYKDDDDKGS"
3,1.8 fold,"146R6 (ligand, Crude CHO-S supernatant, 3x spacer-FLAG tagged) FKIETTPESRYLAQIGDSVSLTCSTTGCESPLFFWRPLLDSPLNGKVTNEGTTSTLTMNPVSFGNEHSYLCTATCESRSLEKGIQVEIYSFPKDPEIHLSGPLEAGKPITVKCSVADVYPFDRLEIDLLKGDHLMKSQEFLEDADRKSLETKSLEVTFTPVIEDIGKVLVCRAKLHIDEMDSVPTVRQAVKELQVYISPGGGSDYKDDDDKGGGSDYKDDDDKGGGSDYKDDDDKGS"
4,6.3 fold,"146R18 (ligand, Crude CHO-S supernatant, 3x spacer-FLAG tagged) FKIETTPESRYLAQIGDSVSLTCSTTGCESPFFFWRPLIDSPLNGKVTNEGTTSTLTMNPVSFGNEHSYLCTATCESRKLEKGIQVEIYSFPKDPEIHLSGPLEAGKPITVKCSVADVYPFDRLEIDLLKGDHLMKSQEFLEDADRKSLETKSLEVTFTPVIEDIGKVLVCRAKLHIDEMDSVPTVRQAVKELQVYISPGGGSDYKDDDDKGGGSDYKDDDDKGGGSDYKDDDDKGS"
5,5.3 fold,"146R15 (ligand, Crude CHO-S supernatant, 3x spacer-FLAG tagged) FKIETTPESRYLAQIGDSVSLTCSTTGCESPFFFWRPQLDSPLNGKVTNEGTTSTLTMNPVSFGNEHSYLCTARCESRKLEKGIQVEIYSFPKDPEIHLSGPLEAGKPITVKCSVADVYPFDRLEIDLLKGDHLMKSQEFLEDADRKSLETKSLEVTFTPVIEDIGKVLVCRAKLHIDEMDSVPTVRQAVKELQVYISPGGGSDYKDDDDKGGGSDYKDDDDKGGGSDYKDDDDKGS"
6,25.9 fold,"146R11 (ligand, Crude CHO-S supernatant, 3x spacer-FLAG tagged) FKIETTPESRYLAQIGDSVSLTCSTTGCESPLFFWRPQLDSPLNGKVTNEGTTSTLTMNPVSFGNEHSYLCTATCESRKLEKGIQVEIYSFPKDPEIHLSGPLEAGKPITVKCSVADVYPFDRLEIDLLKGDHLMKSQEFLEDADRKSLETKSLEVTFTPVIEDIGKVLVCRAKLHIDEMDSVPTVRQAVKELQVYISPGGGSDYKDDDDKGGGSDYKDDDDKGGGSDYKDDDDKGS"
7,1.7 fold,"146R8 (ligand, Crude CHO-S supernatant, 3x spacer-FLAG tagged) FKIETTPESRYLAQIGDSVSLTCSTTGCESPLFFWRPLLDSPLNGKVTNEGTTSTLTMNPVSFGNEHSYLCTATCESRKLEKGIQVEIYSFPKDPEIHLSGPLEAGKPITVKCSVADVYPFDRLEIDLLKGDHLMKSQEFLEDADRKSLETKSLEVTFTPVIEDIGKVLVCRAKLHIDEMDSVPTVRQAVKELQVYISPGGGSDYKDDDDKGGGSDYKDDDDKGGGSDYKDDDDKGS"
8,2.8 fold,"146R17 (ligand, Crude CHO-S supernatant, 3x spacer-FLAG tagged) FKIETTPESRYLAQIGDSVSLTCSTTGCESPFFFWRPLIDSPLNGKVTNEGTTSTLTMNPVSFGNEHSYLCTARCESRKLEKGIQVEIYSFPKDPEIHLSGPLEAGKPITVKCSVADVYPFDRLEIDLLKGDHLMKSQEFLEDADRKSLETKSLEVTFTPVIEDIGKVLVCRAKLHIDEMDSVPTVRQAVKELQVYISPGGGSDYKDDDDKGGGSDYKDDDDKGGGSDYKDDDDKGS"
9,1.5 fold,"146R14 (ligand, Crude CHO-S supernatant, 3x spacer-FLAG tagged) FKIETTPESRYLAQIGDSVSLTCSTTGCESPLFFWRPLIDSPLNGKVTNEGTTSTLTMNPVSFGNEHSYLCTARCESRKLEKGIQVEIYSFPKDPEIHLSGPLEAGKPITVKCSVADVYPFDRLEIDLLKGDHLMKSQEFLEDADRKSLETKSLEVTFTPVIEDIGKVLVCRAKLHIDEMDSVPTVRQAVKELQVYISPGGGSDYKDDDDKGGGSDYKDDDDKGGGSDYKDDDDKGS"
10,2 fold,"146R9 (ligand, Crude CHO-S supernatant, 3x spacer-FLAG tagged) FKIETTPESRYLAQIGDSVSLTCSTTGCESPFFFWRPQLDSPLNGKVTNEGTTSTLTMNPVSFGNEHSYLCTARCESRSLEKGIQVEIYSFPKDPEIHLSGPLEAGKPITVKCSVADVYPFDRLEIDLLKGDHLMKSQEFLEDADRKSLETKSLEVTFTPVIEDIGKVLVCRAKLHIDEMDSVPTVRQAVKELQVYISPGGGSDYKDDDDKGGGSDYKDDDDKGGGSDYKDDDDKGS"
11,21.7 fold,"146R12 (ligand, Crude CHO-S supernatant, 3x spacer-FLAG tagged) FKIETTPESRYLAQIGDSVSLTCSTTGCESPFFSWRPLLDSPLNGKVTNEGTTSTLTMNPVSFGNEHSYLCTATCESRKLEKGIQVEIYSFPKDPEIHLSGPLEAGKPITVKCSVADVYPFDRLEIDLLKGDHLMKSQEFLEDADRKSLETKSLEVTFTPVIEDIGKVLVCRAKLHIDEMDSVPTVRQAVKELQVYISPGGGSDYKDDDDKGGGSDYKDDDDKGGGSDYKDDDDKGS"
12,2.7 fold,"146R10 (ligand, Crude CHO-S supernatant, 3x spacer-FLAG tagged) FKIETTPESRYLAQIGDSVSLTCSTTGCESPFFFWRPLLDSPLNGKVTNEGTTSTLTMNPVSFGNEHSYLCTATCESRKLEKGIQVEIYSFPKDPEIHLSGPLEAGKPITVKCSVADVYPFDRLEIDLLKGDHLMKSQEFLEDADRKSLETKSLEVTFTPVIEDIGKVLVCRAKLHIDEMDSVPTVRQAVKELQVYISPGGGSDYKDDDDKGGGSDYKDDDDKGGGSDYKDDDDKGS"
